Data as given in patent publication US20030036642.

Molecular target: PDGF-AB (A-chain/B-chain heterodimer) (Homo sapiens) (UniProt P04085+P01127)
Test: filter

Chain of PDGF-AB (A-chain/B-chain heterodimer) (Homo sapiens) (P01127 82-190, chain 2 of 2, other chains not shown): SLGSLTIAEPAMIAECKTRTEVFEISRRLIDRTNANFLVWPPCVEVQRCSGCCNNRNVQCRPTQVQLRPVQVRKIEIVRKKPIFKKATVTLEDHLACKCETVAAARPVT

Sequence: ATCCGCCTGATTAGCGATACTNNNNNNNNNNNNNNNNNNNNNNNNNNNNNNNNNNNNNNNNACTTGAGCAAAATCACCTGCAGGGG [round 12 affinity-enriched ssDNA pool]
- Kd (after 12 rounds, apparent Kd): 0.05 nM

Sequence: ATCCGCCTGATTAGCGATACTNNNNNNNNNNNNNNNNNNNNNNNNNNNNNNNNNNNNNNNNACTTGAGCAAAATCACCTGCAGGGG [starting random ssDNA pool]
- binding signal (fold lower affinity than round 12 pool): 700

Sequence: GGGAGACAAGAAUAACGCUCAANNNNNNNNNNNNNNNNNNNNNNNNNNNNNNNNNNNNNNNNNNNNNNNNNNUUCGACAGGAGGCUCACAACAGGC [starting random 2'-F-pyrimidine RNA pool]
- Kd (2'-F all C,U, random 2'-F-pyrimidine RNA, method inferred): 35 nM
